In PMC5095173, “Disulfide-activated protein kinase G Iα regulates cardiac diastolic relaxation and fine-tunes the Frank–Starling response” (Nature Communications, 2016):
Where no end group is shown, it is not given here.

B1: oxidized (WT) protein kinase G Iα, Cys42 disulfide dimer (enzyme, human, UniProt Q13976 1-671, looked up)
chain: MSELEEDFAKILMLKEERIKELEKRLSEKEEEIQELKRKLHKCQSVLPVPSTHIGPRTTRAQGISAEPQTYRSFHDLRQAFRKFTKSERSKDLIKEAILDNDFMKNLELSQIQEIVDCMYPVEYGKDSCIIKEGDVGSLVYVMEDGKVEVTKEGVKLCTMGPGKVFGELAILYNCTRTATVKTLVNVKLWAIDRQCFQTIMMRTGLIKHTEYMEFLKSVPTFQSLPEEILSKLADVLEETHYENGEYIIRQGARGDTFFIISKGTVNVTREDSPSEDPVFLRTLGKGDWFGEKALQGEDVRTANVIAAEAVTCLVIDRDSFKHLIGGLDDVSNKAYEDAEAKAKYEAEAAFFANLKLSDFNIIDTLGVGGFGRVELVQLKSEESKTFAMKILKKRHIVDTRQQEHIRSEKQIMQGAHSDFIVRLYRTFKDSKYLYMLMEACLGGELWTILRDRGSFEDSTTRFYTACVVEAFAYLHSKGIIYRDLKPENLILDHRGYAKLVDFGFAKKIGFGKKTWTFCGTPEYVAPEIILNKGHDISADYWSLGILMYELLTGSPPFSGPDPMKTYNIILRGIDMIEFPKKIAKNAANLIKKLCRDNPSERLGNLKNGVKDIQKHKWFEGFNWEGLRKGTLTPPIIPSVASPTDTSNFDSFPEDNDEPPPDDNSGWDIDF
modifications: intermolecular disulfide bond at Cys42 between the two subunits
notes: protein kinase G Iα (cGMP-dependent protein kinase 1, alpha isoform), human, untagged WT construct; also called PKGIα; source: FreeStyle 293-F cells, transfected, purified (8-AEA-cAMP agarose, size exclusion chromatography); incubated with 10 mM lipoic acid to obtain the disulfide dimer

How the values were obtained:
[1] = target: the molecule itself; assay: cross-linking; intermolecular Cys42 disulfide of purified recombinant PKGIα (lipoic acid or air oxidation) seen as dimer by SDS-PAGE
[2] = target: B1; assay: ITC; PLN (1–23) (700 μM) titrated into the cell containing WT disulfide PKGIα or the C42S mutant (70 μM); 25 °C; 50 mM sodium phosphate buffer pH 7.4, 100 mM NaCl; no cyclic nucleotide; details: both partners purified

| Binder | stoichiometry N [1] | Kd [2] | stoichiometry N [2] |
| --- | --- | --- | --- |
| B1 | 2 | – | – |
| Ac-MEKVQYLTRSAIRRASTIEMPQQ (peptide, UniProt P26678 1-23, looked up, cardiac phospholamban, human, residues 1-23 (N-terminal cytoplasmic domain); also called PLN_(1–23); PLN (1–23); source: synthetic peptide; bought: PeptideSynthetics (Peptide Protein Research Ltd, UK)) | – | ~7 µM | 1 PLN peptide per PKGIα disulfide dimer |
